From the supplement of paper PMC7877785 come the findings set out here.

± gives the uncertainty stated by the source.

This data set is described as follows: self-splicing fitness, log relative to wild type (ln ratio); higher = more splicing; Tetrahymena group I intron in knt gene, E. coli kanamycin selection, DiMSum; sequences stand for … in CUCUCU…GGAGGGAAAAGUUAUCAGGCAUGCACCUGGUAGCUAGUCUUUAAACCAAUAGAUUGCAUCGGUUUAAAAGGCAAGACCGUCAAAUUGCGGGAAAGGGGUCAACAGCCGUUCAGUACCAAGUCUCAGGGGAAACUUUGAGAUGGCCUUGCAAAGGGUAUGGUAAUAAGCUGACGGACAUGGUCCUAACCACGCAGCCAAGUCCUAAGUCAACAGAUCUUCUGUUGAUAUGGAUGCAGUUCACAGACUAAAUGUCGGUCGGGGAAGAUGUAUUCUUCUCAUAAGAUAUAGUCGGACCUCUCCUUAAUGGGAGCUAGCGGAUGAAGUGAUGCAACACUGGAGCCGCUGGGAACUAAUUUGUAUGCGAAAGUAUAUUGAUUAGUUUUGGAGUACUCGUGGUCG
The method in brief:
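DiMSum derived fitness as the error-weighted combination of fold changes across replicates, kanamycin versus no kanamycin, normalised to wild type. E. coli BL21(DE3) held the library, which randomised all eight P1ex-region intron nucleotides within the knt kanamycin-resistance gene on pET-22b(+). Six replicate transformations grew overnight at 37°C or 30°C on LB agar with or without 25 μg/mL kanamycin, also containing 100 μg/mL carbenicillin, 50 μM IPTG and 0.2% rhamnose, and pooled colonies were amplicon-sequenced on an Illumina HiSeq 2500.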

Take GAACAGCAAUAUUACGGUAG: the “self-splicing fitness (ln)” value was -2.81 ± 0.12 (30 °C) and -1.87 ± 0.14 (37 °C). As to GAUUAGCAAUAUUACGACGC, the “self-splicing fitness (ln)” value worked out at 0.277 ± 0.14 (30 °C) and 0.361 ± 0.14 (37 °C). The like results for UACGAGCAAUAUUACGAGUG were, in that order, -1.86 ± 0.07 and -1.74 ± 0.1. For ACUUAGCAAUAUUACGUCAU, in that order: -3.1 ± 0.2 and -1.56 ± 0.17.

Take GUUUAGCAAUAUUACGUCGC: the “self-splicing fitness (ln)” value runs as follows: (30 °C) -1.67 ± 0.16; (37 °C) -0.462 ± 0.18. For AUAGAGCAAUAUUACGGGUA, in that order: -2.89 ± 0.16 and -2.53 ± 0.24. With CUUGAGCAAUAUUACGGCUC, under “37 °C”, the “self-splicing fitness (ln)” value is -1.67 ± 0.36. In the case of CCAGAGCAAUAUUACGCAAU, the “self-splicing fitness (ln)” value was -2.14 ± 0.2 (30 °C) and -2.05 ± 0.31 (37 °C). The like results for UAUCAGCAAUAUUACGGUCC were, in that order, -2.18 ± 0.13 and -0.955 ± 0.19. As to GUAGAGCAAUAUUACGCCAC, for the setting “30 °C”, the “self-splicing fitness (ln)” value is -1.7 ± 0.29. In the case of AACGAGCAAUAUUACGGAUU, the “self-splicing fitness (ln)” value is -2.3 ± 0.14 (30 °C) and -1.4 ± 0.19 (37 °C). As to AAAGAGCAAUAUUACGGAAA, the “self-splicing fitness (ln)” value is -2.38 ± 0.26 (30 °C) and -2.53 ± 0.41 (37 °C). For ACAGAGCAAUAUUACGUCUG, in that order: -2.35 ± 0.18 and -1.03 ± 0.21. The like results for AUCUAGCAAUAUUACGUUAA were, in that order, -1.84 ± 0.23 and -1.82 ± 0.34.

Take GGGGAGCAAUAUUACGGACA: under “37 °C”, the “self-splicing fitness (ln)” value is -1.12 ± 0.2. As to GUGCAGCAAUAUUACGACCG, the “self-splicing fitness (ln)” value is -2.18 ± 0.2 (30 °C) and -1.5 ± 0.27 (37 °C). For GGUGAGCAAUAUUACGGUUG, the “self-splicing fitness (ln)” value was -3.99 ± 0.37 (30 °C) and -2.36 ± 0.25 (37 °C). In the case of AAUUAGCAAUAUUACGCAAU, the “self-splicing fitness (ln)” value by setting is: (30 °C) -2.4 ± 0.13; (37 °C) -1.74 ± 0.17. On to CCACAGCAAUAUUACGGAUC, for which the “self-splicing fitness (ln)” value was -4.54 ± 0.34 (30 °C) and -2.8 ± 0.27 (37 °C). The like results for AAACAGCAAUAUUACGGAUU were, in that order, -1.67 ± 0.068 and -0.362 ± 0.079. The like results for UUGAAGCAAUAUUACGACAA were, in that order, 0.222 ± 0.087 and 0.511 ± 0.12. The like results for GGGUAGCAAUAUUACGAGCG were, in that order, -1.3 ± 0.12 and -0.426 ± 0.12.

Consider AUCCAGCAAUAUUACGCUGA, for which the “self-splicing fitness (ln)” value runs as follows: (30 °C) -1.36 ± 0.097; (37 °C) -1.22 ± 0.13. With CAGUAGCAAUAUUACGGACG, the “self-splicing fitness (ln)” value by setting is: (30 °C) -0.216 ± 0.11; (37 °C) 0.702 ± 0.16. For CCUGAGCAAUAUUACGAAUA, the “self-splicing fitness (ln)” value is -2.69 ± 0.38 (30 °C) and -1.35 ± 0.21 (37 °C).

Consider CCGCAGCAAUAUUACGUGUG, for which the “self-splicing fitness (ln)” value is -3.24 ± 0.11 (30 °C) and -1.79 ± 0.094 (37 °C). For UAAUAGCAAUAUUACGGCAU, in that order: -3.26 ± 0.18 and -2.28 ± 0.23. For GGACAGCAAUAUUACGACGU, in that order: -0.177 ± 0.06 and 0.587 ± 0.075.

CUUCAGCAAUAUUACGCGGG: the “self-splicing fitness (ln)” value reads like this: (30 °C) -3.7 ± 0.19; (37 °C) -2.61 ± 0.2. With GGCGAGCAAUAUUACGUACC, under “30 °C”, the “self-splicing fitness (ln)” value is -1.44 ± 0.25. As for AGGAAGCAAUAUUACGUGGG, the “self-splicing fitness (ln)” value was -4.36 ± 0.31 (30 °C) and -3.38 ± 0.23 (37 °C). As to GCGUAGCAAUAUUACGGUGA, the “self-splicing fitness (ln)” value (30 °C) is -1.73 ± 0.12 and the “self-splicing fitness (ln)” value (37 °C) is -0.187 ± 0.12. Regarding ACGAAGCAAUAUUACGUGAC, the “self-splicing fitness (ln)” value is -3.87 ± 0.26 (30 °C) and -1.12 ± 0.17 (37 °C). The like results for AUGUAGCAAUAUUACGGUUU were, in that order, -0.83 ± 0.085 and -0.694 ± 0.1. The like results for AACCAGCAAUAUUACGUGUU were, in that order, -3.59 ± 0.11 and -2.47 ± 0.12. For CAAUAGCAAUAUUACGCUGA, in that order: -3.11 ± 0.22 and -1.85 ± 0.16. For GCCAAGCAAUAUUACGGGGC, the “self-splicing fitness (ln)” value (30 °C) is -3.69 ± 0.22 and the “self-splicing fitness (ln)” value (37 °C) is -2.85 ± 0.27. For GACAAGCAAUAUUACGCGCA, in that order: -0.282 ± 0.099 and -0.0559 ± 0.1. For AGCCAGCAAUAUUACGGGAG, in that order: -2.56 ± 0.11 and -2.17 ± 0.14. The like results for GCCUAGCAAUAUUACGUUAU were, in that order, -1.52 ± 0.12 and -0.39 ± 0.14. On to CAAAAGCAAUAUUACGGGAG, for which the “self-splicing fitness (ln)” value is, setting by setting: (30 °C) -2.05 ± 0.074; (37 °C) -0.972 ± 0.079. Consider CACAAGCAAUAUUACGAGGA, for which the “self-splicing fitness (ln)” value reads like this: (30 °C) -3.18 ± 0.25; (37 °C) -2.59 ± 0.19.

Take GAACAGCAAUAUUACGGCUU: the “self-splicing fitness (ln)” value reads like this: (30 °C) -0.492 ± 0.064; (37 °C) 0.239 ± 0.087. The like results for CCACAGCAAUAUUACGGCAU were, in that order, -3.72 ± 0.16 and -2.54 ± 0.18. On to UUCGAGCAAUAUUACGCUCC, for which the “self-splicing fitness (ln)” value (30 °C) was -3.27 ± 0.41. On to UCCAAGCAAUAUUACGCCCA, for which the “self-splicing fitness (ln)” value runs as follows: (30 °C) -0.733 ± 0.14; (37 °C) -1.07 ± 0.21.

As for CCAAAGCAAUAUUACGGUCG, the “self-splicing fitness (ln)” value reads like this: (30 °C) -0.306 ± 0.066; (37 °C) -0.674 ± 0.077. As to GAAAAGCAAUAUUACGGGGC, the “self-splicing fitness (ln)” value reads like this: (30 °C) -2.89 ± 0.16; (37 °C) -3.46 ± 0.37. For AUGAAGCAAUAUUACGAACU, in that order: -0.587 ± 0.074 and 0.606 ± 0.098. Turning to UGAAAGCAAUAUUACGAUUU, the “self-splicing fitness (ln)” value by setting is: (30 °C) -1.08 ± 0.06; (37 °C) -0.463 ± 0.077. For AGACAGCAAUAUUACGGCUC, the “self-splicing fitness (ln)” value is -2.59 ± 0.15 (30 °C) and -1.02 ± 0.13 (37 °C).

Take GGCGAGCAAUAUUACGUAAG: the “self-splicing fitness (ln)” value is -3.88 ± 0.38 (30 °C) and -1.39 ± 0.27 (37 °C). The like results for CGCAAGCAAUAUUACGCUAA were, in that order, -2.42 ± 0.17 and -3.24 ± 0.33. The like results for UCGAAGCAAUAUUACGACCU were, in that order, -1.51 ± 0.16 and -1.1 ± 0.18. Take GCACAGCAAUAUUACGGAAU: the “self-splicing fitness (ln)” value (30 °C) was -1.08 ± 0.076 and the “self-splicing fitness (ln)” value (37 °C) was -0.95 ± 0.095. Regarding AGUUAGCAAUAUUACGGAGU, the “self-splicing fitness (ln)” value is -3.29 ± 0.3 (30 °C) and -1.3 ± 0.2 (37 °C).

In the case of UUCGAGCAAUAUUACGUGCA, the “self-splicing fitness (ln)” value runs as follows: (30 °C) -2.18 ± 0.19; (37 °C) -1.4 ± 0.16. The like results for GCAUAGCAAUAUUACGAUGU were, in that order, -2.82 ± 0.13 and -2.31 ± 0.17. For UCGCAGCAAUAUUACGGCCG, in that order: -0.546 ± 0.12 and -0.522 ± 0.18. In the case of GAUUAGCAAUAUUACGUGGC, the “self-splicing fitness (ln)” value is, setting by setting: (30 °C) -3.36 ± 0.25; (37 °C) -2.3 ± 0.21. AUGAAGCAAUAUUACGUCGG: the “self-splicing fitness (ln)” value (30 °C) was -0.496 ± 0.1 and the “self-splicing fitness (ln)” value (37 °C) was -0.498 ± 0.11. With ACGCAGCAAUAUUACGGUUG, the “self-splicing fitness (ln)” value is -3.89 ± 0.2 (30 °C) and -1.85 ± 0.14 (37 °C). CGCUAGCAAUAUUACGGCAG: the “self-splicing fitness (ln)” value is -1.29 ± 0.082 (30 °C) and -0.703 ± 0.15 (37 °C). Take UUCUAGCAAUAUUACGCAAU: the “self-splicing fitness (ln)” value by setting is: (30 °C) -2.27 ± 0.22; (37 °C) -2.21 ± 0.32.

As for GGUGAGCAAUAUUACGGCUA, the “self-splicing fitness (ln)” value reads like this: (30 °C) -0.0423 ± 0.12; (37 °C) 0.0315 ± 0.14. With CCGGAGCAAUAUUACGAAUA, the “self-splicing fitness (ln)” value (37 °C) is -2.16 ± 0.4. Take CGGAAGCAAUAUUACGCGGG: the “self-splicing fitness (ln)” value by setting is: (30 °C) -1.64 ± 0.16; (37 °C) -1.35 ± 0.18. Take UCAGAGCAAUAUUACGCCCA: where the note is “30 °C”, the “self-splicing fitness (ln)” value was -2.06 ± 0.44. Turning to ACAAAGCAAUAUUACGUUUU, the “self-splicing fitness (ln)” value reads like this: (30 °C) -3.53 ± 0.14; (37 °C) -2.95 ± 0.16.

For the sequence GGGUAGCAAUAUUACGUAUA, the “self-splicing fitness (ln)” value is, setting by setting: (30 °C) -1.41 ± 0.14; (37 °C) -0.205 ± 0.15. As for UCUUAGCAAUAUUACGUUCU, the “self-splicing fitness (ln)” value (37 °C) is -2.75 ± 0.21. Regarding ACUGAGCAAUAUUACGUUAA, the “self-splicing fitness (ln)” value runs as follows: (30 °C) -4.3 ± 0.42; (37 °C) -2.15 ± 0.28. On to UGAUAGCAAUAUUACGCGAU, for which the “self-splicing fitness (ln)” value by setting is: (30 °C) -2.6 ± 0.29; (37 °C) -2.65 ± 0.26. For GAGAAGCAAUAUUACGAUUG, in that order: -2.76 ± 0.22 and -1.49 ± 0.23. With CGUGAGCAAUAUUACGAAAA, the “self-splicing fitness (ln)” value (37 °C) was -2.88 ± 0.43. Turning to UGACAGCAAUAUUACGUAUU, the “self-splicing fitness (ln)” value is, setting by setting: (30 °C) -3.43 ± 0.15; (37 °C) -1.78 ± 0.11.

CUUUAGCAAUAUUACGCUGC: the “self-splicing fitness (ln)” value is -3.39 ± 0.38 (30 °C) and 0.317 ± 0.36 (37 °C).

For the sequence CGACAGCAAUAUUACGAUCA, the “self-splicing fitness (ln)” value runs as follows: (30 °C) -0.455 ± 0.07; (37 °C) 0.458 ± 0.096.
